Measured values: US11015206B2, “Compositions and methods comprising sequences having hydroxyphenylpyruvate dioxygenase (HPPD) activity” (PIONEER HI-BRED INTERNATIONAL, INC., priority 2014, dated 2021)

Key:
Assay type in all cases: biochemical, Z. mays
[1] = system: 4-hydroxyphenylpyruvate dioxygenase (HPPD); test: Estimate of kcat from initial rate at saturating hydroxyphenylpyruvate without inhibitor (ON rate ratio assay)
Text: (§1) Higher KD (reduced affinity or increased insensitivity) can be attained with a numerically smaller ON rate, a larger OFF rate or both. To detect and quantify changes in kON and kOFF, observations of the time course of an HPPD reaction as inhibitor binds to and inactivates the enzyme (kON), or is released from a pre-formed enzyme-inhibitor complex (kOFF) were used, as shown in FIGS. 13A and 13B. In practice, a quantitative indicator of kON was obtained by monitoring the time courses of HPPD reactions containing 60 or 120 nM HPPD and 100 μM HPP in the presence and absence of 4 μM inhibitor (e.g., mesotrione or tembotrione). The ratio of the reaction rate with inhibitor to that without inhibitor during the 70 to 90 second interval of the reaction was termed the “ON rate ratio”. The smaller the actual kON, the more slowly the HPPD reaction decelerates and the higher the value is for the ON rate ratio. FIGS. 13A and 13B illustrate the contrasting reaction velocity in the 70-90 sec interval for maize wild-type HPPD (FIG. 13A) versus an improved variant (SEQ ID NO:78) (FIG. 13B).
Thirty nine variants were desensitized to tembotrione compared with the backbone enzyme, Round 7, variant 9070 (SEQ ID NO:2) and all were desensitized compared with maize wild type HPPD (SEQ ID NO:1). Because the assay for ON rate ratio includes an initial rate measurement at saturating hydroxyphenylpyruvate without inhibitor and with known enzyme concentration, an estimate of kcat was available. Taking into account kcat and insensitivity parameters, 30 variants were selected for measurement of substrate saturation kinetic parameters and re-evaluation of insensitivity to tembotrione. The kinetic and insensitivity parameters were determined as described in Example 1, and were multiplied to generate the “trait fitness” parameter. The complete list of variants, i.e., of selected single substitutions in SEQ ID NO:2, analyzed with multiple inhibitors and the results obtained are shown in Table 6. The same set of 30 variants were evaluated for insensitivity to mesotrione, sulcotrione, isoxaflutole (its active diketonitrile form, abbreviated DKN in Table 6) and topramezone.

[2] = system: 4-hydroxyphenylpyruvate dioxygenase (HPPD); test: OFF rate ratio: release of inhibitor from pre-formed enzyme-inhibitor complex; conditions: Table 7; tembotrione; combinatorial variants
Method: A quantitative indicator of kOFF can be obtained by observing the time course of an HPPD reaction as inhibitor is released from a pre-formed enzyme-inhibitor complex. HPPD and inhibitor were incubated together at concentrations of 7.2 and 8 μM, respectively. Incubations with the same concentrations of enzyme but no inhibitor were done in parallel. After 1 hr at room temperature, 5 to 10 μl of the enzyme-inhibitor complex was dispensed into the wells of the assay plate. Reactions were started with the addition of 290 to 295 μl of 25 mM Hepes, pH 7, 2 mM ascorbate, 10 μM FeSO4, 100 μM HPP and 50 nM HGD. The reactions were monitored at 320 nm for 12 min. Reaction velocity accelerates as inhibitor is released from the enzyme until a steady state is reached, during which the reaction velocity is constant. The ratio of the steady state rate in mixtures containing herbicidal inhibitor to the initial velocity of mixtures lacking inhibitor is termed the “OFF rate ratio”.
Another parameter to record is the time span required for the reactions with inhibitor to reach the steady state. FIGS. 13C and 13D illustrate the contrasting time span in which maize wild-type HPPD (FIG. 13C) and an improved variant (SEQ ID NO:78) (FIG. 13D) dissociated from mesotrione, as indicated by the accelerating reaction rates. The plateau of absorbance is due to exhaustion of the substrate. With the improved variant, not only was the steady state attained in a shorter time span (80 sec for the variant versus 280 sec for wild type), the velocity attained was twice as high as with wild type, though the enzymes were present at the same concentration (240 nM). This is because a larger fraction of the variant enzyme is free of inhibitor compared to the wild-type enzyme, and the kcat for both is nearly the same, about 220 min^−1.

[3] = system: 4-hydroxyphenylpyruvate dioxygenase (HPPD); test: Insensitivity parameter (ON × OFF) and trait fitness (ON × OFF × kcat/KM or × kcat); parameters: key to ON × OFF / Insensitivity, mesotrione, ON × OFF / Insensitivity, tembotrione, ON × OFF / Insensitivity, topramezone, ON × OFF / Insensitivity, sulcotrione, ON × OFF / Insensitivity, isoxaflutole (DKN), ON × OFF: insensitivity = ON rate ratio × OFF rate ratio (surrogate for KD)
Text: Because substrate and inhibitors bind in the same site, the high concentration of substrate present may competitively trap the inhibitor and prevent it from binding again. To be sure that improvement in ON rates is being taken into account, the ON and OFF rate ratios were multiplied, creating an “insensitivity parameter” that is a surrogate for KD. KD is expressed as kOFF/kON, but because the ON rate ratio is an inverse parameter (the higher the value of ON rate ratio, the lower the value of the represented phenomenon, kON), it is appropriate to multiply ON and OFF rate ratios rather then divide OFF rate ratio by ON rate ratio. Another parameter, which quantifies the combined catalytic and insensitivity properties of the enzyme is kcat/KM×ON rate ratio×OFF rate ratio, and is termed “trait fitness”. This parameter is intended to have a meaning similar to the commonly used expression kcat/KM×Ki.

[4] = system: 4-hydroxyphenylpyruvate dioxygenase (HPPD); test: ON rate ratio: HPPD reaction rate with vs without inhibitor in the 70 to 90 second interval; conditions: Table 7; tembotrione; combinatorial variants
Text: as §1

[5] = Table 7, combinatorial variants
[6] = Table 7, tembotrione, combinatorial variants

Molecule | kcat ([1]; Megatable 3, shuffled variants) [s⁻¹] | kcat [1, 5] [s⁻¹] | OFF rate ratio [2] | ON × OFF ([3]; Megatable 3, shuffled variants) | ON × OFF × kcat ([3]; Megatable 3, shuffled variants) | ON × OFF [3, 6] | ON × OFF × kcat [3, 6] | ON rate ratio [4]
P056028-B-07 (protein, Zea mays variant form created by artificial means.) MGPTPTATAAGAAVAAASAAEQAAFRLVGHRNFVRFNPRSDRFQTLAFHHVELWCADAASAAGRFSFALGVPLAARSDLSTGNSAHASLLLRSGSLSLLFTAPYAHGADAATAALPSFSAAAARRFAADHGLAVRAVALRVADAEDAFRASVAAGARPAFGPVDLGRGFRLAEVELYGDVVLRYVSYPDGAAGEPFLPGFEGVASQGAADYGLSRFDHIVGNVPELAPAAAYMAGFTGFHEFAEFTTEDVGTTESGLNSMALANNSENVLLPLNEPVHGTKRRSQIQTFLDHHGGPGVQHIALASDDVLRTLREMRARSAMGGFEFLPPPLSDYYDGVRRCAGDVLTEAQINECQELGVMVDRDDEGVLLQIFTKPVGDRPTFFIELIQRIGCMEKDEKGQEYQKGGCGGFGKGNFGQLFKSIEDYEKSLEAKQAAAAATAQGS | 0.153 | 0.153 | 0.389 | 0.307 | 2.83 | 0.307 | 2.83 | 0.788
P056028-C-02 (protein, Zea mays variant form created by artificial means.) MGPTPTATAAGAAVAAASAAEQAAFRLVGHRNFVRFNPRSDRFQTLAFHHVELWCADAASAAGRFSFALGVPLAARSDLSTGNSAHASLLLRSGSLSLLFTAPYAHGADAATAALPSFSAAAARRFAADHGLAVRAVALRVADAEDAFRASVAAGARPAFGPVDLGRGFRLAEVELYGDVVLRYVSYPDGAAGEPFLPGFEGVASPGAADLGLSRFDHIVGNVPELAPAAAYMAGFTGFHEFAEFTTEDVGTTESGLNSMALANNSENVLLPLNEPVHGTKRRSQIQTFLDHHGGPGVQHIALASDDVLRTLREMRARSAMGGFEFLPPPLSDYYDGVRRCAGDVLTEAQINECQKLGVMVDRDDEGVLLQIFTKPVGDRPTFFLEIIQRIGCMEKDEKGQEYQKGGCGGFGKGNFGQLFKSIEDYEKSLEAKQAAAAATAQGS | 0.313 | 0.313 | 0.379 | 0.272 | 5.11 | 0.272 | 5.11 | 0.717
P056028-B-08 (protein, Zea mays variant form created by artificial means.) MGPTPTATAAGAAVAAASAAEQAAFRLVGHRNFVRFNPRSDRFQTLAFHHVELWCADAASAAGRFSFALGVPLAARSDLSTGNSAHASLLLRSGSLSLLFTAPYAHGADAATAALPSFSAAAARRFAADHGLAVRAVALRVADAEDAFRASVAAGARPAFGPVDLGRGFRLAEVELYGDVVLRYVSYPDGAAGEPFLPGFEGVASPGAADYGLSRFDHIVGNVPELAPAAAYMAGFTGFHEFAEFTTEDVGTTESGLNSMALANNSENVLLPLNEPVHGTKRRSQIQTFLDHHGGPGVQHIALASDDVLRTLREMRARSAMGGFEFLPPPLSDYYDGVRKCAGDVLTEAQINECQELGVMVDRDDEGVLLQIFTKPVGDRPTFFLEIIQRIGCMEKDEKGQEYQKGGCGGFGKGNFGQLFKSIEDYEKSLEAKQAAAAATAQGS | 0.258 | 0.258 | 0.325 | 0.221 | 3.44 | 0.221 | 3.44 | 0.681
P056028-C-10 (protein, Zea mays variant form created by artificial means.) MGPTPTATAAGAAVAAASAAEQAAFRLVGHRNFVRFNPRSDRFQTLAFHHVELWCADAASAAGRFSFALGVPLAARSDLSTGNSAHASLLLRSGSLSLLFTAPYAHGADAATAALPSFSAAAARRFAADHGLAVRAVALRVADAEDAFRASVAAGARPAFGPVDLGRGFRLAEVELYGDVVLRYVSYSDGAAGEPFLPGFEGVASPGAADYGLSRFDHIVGNVPELAPAAAYMAGFTGFHEFAEFTTEDVGTTESGLNSMALANNSENVLLPLNEPVHGTKRRSQIQTFLDHHGGPGVQHIALASDDVLRTLREMRARSAMGGFEFLPPPLSDYYDGVRKCAGDVLTEAQINECQELGVMVDRDDEGVLLQIFTKPVGDRPTFFLEIIQRIGCMEKDEKGQEYQKGGCGGFGKGNFGQLFKSIEDYEKSLEAKQAAAAATAQGS | 0.243 | 0.243 | 0.356 | 0.249 | 3.63 | 0.249 | 3.63 | 0.699
P056028-C-11 (protein, Zea mays variant form created by artificial means.) MGPTPTATAAGAAVAAASAAEQAAFRLVGHRNFVRFNPRSDRFQTLAFHHVELWCADAASAAGRFSFALGVPLAARSDLSTGNSAHASLLLRSGSLSLLFTAPYAHGADAATAALPSFSAAAARRFAADHGLAVRAVALRVADAEDAFRASVAAGARPAFGPVDLGRGFRLAEVELYGDVVLRYVSYPDGAAGEPFLPGFEGVASPGAADLGLSRFDHIVGNVPELAPAAAYMAGFTGFHEFAEFTTEDVGTTESGLNSMALANNSENVLLPLNEPVHGTKRRSQIQTFLDHHGGPGVQHIALASDDVLRTLREMRARSAMGGFEFLPPPLSDYYDGVRKCAGDVLTEAQINECQELGVMVDRDDEGVLLQIFTKPVGDRPTFFLELIQRIGCMEKDEKGQEYQKGGCGGFGKGNFGQLFKSIEDYEKSLEAKQAAAAATAQGS | 0.205 | 0.205 | 0.293 | 0.214 | 2.64 | 0.214 | 2.64 | 0.731
P056028-C-03 (protein, Zea mays variant form created by artificial means.) MGPTPTATAAGAAVAAASAAEQAAFRLVGHRNFVRFNPRSDRFQTLAFHHVELWCADAASAAGRFSYALGVPLAARSDLSTGNSAHASLLLRSGSLSLLFTAPYAHGADAATAALPSFSAAAARRFAADHGLAVRAVALRVADAEDAFRASVAAGARPAFGPVDLGRGFRLAEVELYGDVVLRYVSYPDGAAGEPFLPGFEGVASPGAADYGLSRFDHIVGNVPELAPAAAYMAGFTGFHEFAEFTTEDVGTTESGLNSMALANNSENVLLPLNEPVHGTKRRSQIQTFLDHHGGPGVQHIALASDDVLRTLREMRARSAMGGFEFLPPPLSDYYDGVRKCAGDVLTEAQINECQELGVMVDRDDEGVLLQIFTKPVGDRPTFFIELIQRIGCMEKDEKGQEYQKGGCGGFGKGNFGQLFKSIEDYEKSLEAKQAAAAATAQGS | 0.228 | 0.228 | 0.356 | 0.263 | 3.62 | 0.263 | 3.62 | 0.739
